Data set [1] deals with T1, His10-MBD2 (UniProt Q9UBB5 151-411). Nature of the data set: QCM; 500 nM DNA; threshold MBD2 density ~88 ng/cm2; up to 61% of bound DNA irreversible; BB: 50 mM Tris, 350 mM NaCl, 0.1% Triton X-100 (pH and temperature of BB not stated); 500 nM DNA, 30 min, QCM 5th overtone; His10MBD2 loaded at 1 uM in IB (50 mM Tris pH 7.2, 300 mM NaCl, 0.1% beta-mercaptoethanol). Conditions: protein: recombinant; tags: N-terminal His10; blunt.

In data set [2] the target is T1, His10-MBD2. Nature of the data set: QCM; 500 nM DNA; same trend as Mal5C*pG and Mal3C*pG; plateau between them; BB: 50 mM Tris, 350 mM NaCl, 0.1% Triton X-100 (pH and temperature of BB not stated); 500 nM DNA, 30 min, QCM 5th overtone; His10MBD2 loaded at 1 uM in IB (50 mM Tris pH 7.2, 300 mM NaCl, 0.1% beta-mercaptoethanol). The settings on record: protein: recombinant; tags: N-terminal His10; blunt.

Changes are numbered by the printed parent chain.

T1 sequence (Q9UBB5 151-411): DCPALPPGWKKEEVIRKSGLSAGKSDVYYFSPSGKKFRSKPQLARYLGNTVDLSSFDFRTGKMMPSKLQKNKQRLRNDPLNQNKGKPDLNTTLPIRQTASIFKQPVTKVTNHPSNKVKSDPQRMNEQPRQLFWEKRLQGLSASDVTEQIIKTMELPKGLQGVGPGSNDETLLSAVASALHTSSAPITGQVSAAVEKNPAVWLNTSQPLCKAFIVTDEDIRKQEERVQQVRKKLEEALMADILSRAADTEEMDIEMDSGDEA

B1: Mal5C*pG (dsDNA)
DNA 1: CAGGCAGATGCGCAGCACCAAGCAGAGAGGCCCGGTGCAGGATCCCAGGCCCGAACCAGGCCCGGCTCAGTGGAGCCGGAAGGGGCAGGC
DNA 2: GCCTGCCCCTTCCGGCTCCACTGAGCCGGGCCTGGTTCGGGCCTGGGATCCTGCACCGGGCCTCTCTGCTTGGTGCTGCGCATCTGCCTG
modifications: 5-methyl-C at all CpGs, both strands (M.SssI); top strand C11, C33, C52, C63, C77
Regarding B1, in the data set with His10-MBD2 [1], the binding result is given as “binds”.

B2: Mal4C*pG (dsDNA)
DNA 1: B1 DNA 1 with C33G, G53C, A54G, C63A, A74C, C77T
DNA 2: B1 DNA 2 with G14A, T17G, G28T, T37C, C38G, G58C
modifications: 5-methyl-C at all CpGs, both strands (M.SssI); top strand C11, C32, C53, C74
As for B2, in the data set with His10-MBD2 [2], the binding result was “binds”.

The record behind these values is paper PMC9478954, “Density Control over MBD2 Receptor-Coated Surfaces Provides Superselective Binding of Hypermethylated DNA”.
